Assay results taken from US20230212270A1 (UNIVERSITY OF PITTSBURGH OF THE COMMONWEALTH SYSTEM OF …, published 2023).

Key:
[1] = target: T1, Human serum albumin (HSA) (human, UniProt P02768 25-609); test: affinity as cited in the structural example (SPR)
T1 construct: In SPR the HSA was immobilised on a CM5 chip

[2] = target: T1, Human serum albumin (HSA); test: SPR (Biacore 3000), HSA immobilised on CM5 chip, Nb as analyte
Experimental: Nb Affinity measurement by surface plasmon resonance (SPR) Surface plasmon resonance (SPR, Biacore 3000 system, GE Healthcare) was used to measure Nb affinities. Briefly, a protein antigen such as GST, OMP25 PDZ domain or human serum albumin was immobilized to the flow channels of an activated CM5 sensor-chip. Protein analytes were diluted to 10-30 µg/ml in 10 mM sodium acetate, pH 4.5, and injected into the SPR system at 5 µl/min for 420 s. The surface was then blocked by 1 M ethanolamine-HCl (pH 8.5). For each Nb analyte, a series of dilution spanning approximately 1,000 fold was injected in duplicate, with HBS-EP+ running buffer (GE-Healthcare) containing 2 mM DTT, at a flow rate of 20- 30 µl/min for 120- 180 s, followed by a dissociation time of 5 - 20 mins based on dissociation rate. Between each injection, the sensor chip surface was regenerated with low pH buffer containing 10 mM glycine-HCl (pH 1.5- 2.5) at a flow rate of 40-50 µl/min for 30 s, or high pH buffer of 20-40 mM NaOH (pH 12- 13) at 40-50 µl/min for 30 s. Binding sensorgrams for each Nb were processed and analyzed using BIA evaluation by fitting with 1:1 Langmuir model or 1:1 Langmuir model with mass transfer.

T1 sequence (P02768 25-609 limits assumed, form in doubt): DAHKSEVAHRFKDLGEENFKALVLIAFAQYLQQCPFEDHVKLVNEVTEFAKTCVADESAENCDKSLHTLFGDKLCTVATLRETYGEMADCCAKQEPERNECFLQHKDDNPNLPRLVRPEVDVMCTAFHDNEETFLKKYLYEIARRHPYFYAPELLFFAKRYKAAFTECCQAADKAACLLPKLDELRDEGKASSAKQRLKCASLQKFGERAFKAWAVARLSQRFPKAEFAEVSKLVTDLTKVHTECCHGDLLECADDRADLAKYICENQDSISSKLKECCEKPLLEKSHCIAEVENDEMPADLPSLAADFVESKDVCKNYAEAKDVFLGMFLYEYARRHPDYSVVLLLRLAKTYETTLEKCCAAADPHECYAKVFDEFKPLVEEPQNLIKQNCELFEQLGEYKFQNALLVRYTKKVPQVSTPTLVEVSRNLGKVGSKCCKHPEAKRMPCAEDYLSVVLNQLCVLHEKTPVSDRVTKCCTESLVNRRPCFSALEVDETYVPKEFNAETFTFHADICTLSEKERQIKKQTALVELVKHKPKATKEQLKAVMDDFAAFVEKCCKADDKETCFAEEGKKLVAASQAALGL

Kd [1]: 0.16 nM | Kd [2]: 0.166 nM | koff [2]: 2.75e-05 s⁻¹ | kon [2]: 166000 M⁻¹ s⁻¹
B1: Nb80 (VHH)
VHH: EVQLVESGGGLVQAGGSLRLSCTASGRTFTPYTMGWFRQAPGKEREFVASILWSGNNRDYADSVKGRFAISRDNAKNTAYLQMTSLKPEDTAVYYCAAGDGLGFYRSVNQYDYWGQGTQVTVS
notes: His-tagged nanobody from E. coli
